B1: Fab fragment of REGN10933 (Fab, V domains shown)
VH: QVQLVESGGGLVKPGGSLRLSCAASGFTFSDYYMSWIRQAPGKGLEWVSYITYSGSTIYYADSVKGRFTISRDNAKSSLYLQMNSLRAEDTAVYYCARDRGTTMVPFDYWGQGTLVTVSS
VL: DIQMTQSPSSLSASVGDRVTITCQASQDITNYLNWYQQKPGKAPKLLIYAASNLETGVPSRFSGSGSGTDFTFTISGLQPEDIATYYCQQYDNLPLTFGGGTKVEIK
notes: also called REGN10933 Fab
B2: Fab fragment of REGN10987 (Fab, V domains shown)
VH: QVQLVESGGGVVQPGRSLRLSCAASGFTFSNYAMYWVRQAPGKGLEWVAVISYDGSNKYYADSVKGRFTISRDNSKNTLYLQMNSLRTEDTAVYYCASGSDYGDYLLVYWGQGTLVTVSS
VL: QSALTQPASVSGSPGQSITISCTGTSSDVGGYNYVSWYQQHPGKAPKLMIYDVSKRPSGVSNRFSGSKSGNTASLTISGLQSEDEADYYCNSLTSISTWVFGGGTKLTVL
notes: also called REGN10987 Fab

Target: T1, SARS-CoV-2 spike RBD (as in the cryo-EM complex with REGN10933 and REGN10987 Fabs) (SARS-CoV-2, UniProt P0DTC2)
T1 construct: also called SARS-CoV-2 RBD
Test: cryo-EM structure; single-particle cryo-EM of SARS-CoV-2 spike RBD bound to Fab fragments of REGN10933 and REGN10987, nominal resolution 3.9 Å
Conditions: both partners purified

| Binder | binding result |
| --- | --- |
| B1 | binds |
| B2 | binds |

Source: paper PMC7299284, “Studies in humanized mice and convalescent humans yield a SARS-CoV-2 antibody cocktail” (Science (New York, N.y.), 2020)
